PMC5389614
Read-outs that look alike come from different tables or passages of the source.

T1: AgeI wt (UniProt Q9KHV6 1-278)
T1 sequence: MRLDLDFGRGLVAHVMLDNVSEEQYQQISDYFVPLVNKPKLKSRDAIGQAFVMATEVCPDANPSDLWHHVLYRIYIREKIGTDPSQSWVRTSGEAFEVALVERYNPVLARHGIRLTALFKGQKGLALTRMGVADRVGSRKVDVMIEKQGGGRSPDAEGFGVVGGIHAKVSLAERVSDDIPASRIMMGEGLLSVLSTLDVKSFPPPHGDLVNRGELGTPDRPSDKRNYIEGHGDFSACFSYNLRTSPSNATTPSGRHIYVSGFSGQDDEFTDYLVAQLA

T2: AgeI D223A (UniProt Q9KHV6 1-278, D223A)
T2 sequence: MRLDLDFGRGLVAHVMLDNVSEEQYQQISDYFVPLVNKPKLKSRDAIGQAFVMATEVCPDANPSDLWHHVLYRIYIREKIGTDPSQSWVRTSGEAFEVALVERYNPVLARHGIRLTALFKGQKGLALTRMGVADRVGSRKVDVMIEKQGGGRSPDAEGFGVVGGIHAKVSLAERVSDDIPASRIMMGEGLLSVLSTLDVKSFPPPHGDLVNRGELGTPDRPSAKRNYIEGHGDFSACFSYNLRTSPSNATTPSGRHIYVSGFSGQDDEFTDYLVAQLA

T3: AgeI D178A (UniProt Q9KHV6 1-278, D178A)
T3 sequence: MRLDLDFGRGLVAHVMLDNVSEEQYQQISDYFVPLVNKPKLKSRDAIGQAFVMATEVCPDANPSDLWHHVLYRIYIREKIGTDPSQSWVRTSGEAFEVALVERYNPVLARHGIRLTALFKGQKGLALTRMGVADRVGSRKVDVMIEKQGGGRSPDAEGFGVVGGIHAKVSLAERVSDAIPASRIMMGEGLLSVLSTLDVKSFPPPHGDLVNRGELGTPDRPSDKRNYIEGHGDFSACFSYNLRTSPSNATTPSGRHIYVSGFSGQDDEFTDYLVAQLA

T4: AgeI D177A (UniProt Q9KHV6 1-278, D177A)
T4 sequence: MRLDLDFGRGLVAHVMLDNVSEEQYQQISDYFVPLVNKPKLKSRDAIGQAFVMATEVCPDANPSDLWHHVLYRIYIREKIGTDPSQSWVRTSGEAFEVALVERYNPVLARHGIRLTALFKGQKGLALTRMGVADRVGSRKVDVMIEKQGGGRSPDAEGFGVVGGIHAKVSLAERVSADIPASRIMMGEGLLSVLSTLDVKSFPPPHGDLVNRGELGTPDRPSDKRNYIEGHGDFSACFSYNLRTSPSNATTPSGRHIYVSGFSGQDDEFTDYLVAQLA

T5: AgeI D142A (UniProt Q9KHV6 1-278, D142A)
T5 sequence: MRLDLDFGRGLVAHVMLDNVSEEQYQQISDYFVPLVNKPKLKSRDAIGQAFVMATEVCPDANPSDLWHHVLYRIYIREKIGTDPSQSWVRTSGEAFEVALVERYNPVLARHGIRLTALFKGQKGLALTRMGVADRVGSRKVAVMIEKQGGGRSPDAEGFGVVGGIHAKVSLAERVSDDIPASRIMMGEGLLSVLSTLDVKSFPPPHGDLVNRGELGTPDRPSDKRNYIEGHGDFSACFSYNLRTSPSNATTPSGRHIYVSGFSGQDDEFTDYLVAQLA

T6: AgeI Q86A (UniProt Q9KHV6 1-278, Q86A)
T6 sequence: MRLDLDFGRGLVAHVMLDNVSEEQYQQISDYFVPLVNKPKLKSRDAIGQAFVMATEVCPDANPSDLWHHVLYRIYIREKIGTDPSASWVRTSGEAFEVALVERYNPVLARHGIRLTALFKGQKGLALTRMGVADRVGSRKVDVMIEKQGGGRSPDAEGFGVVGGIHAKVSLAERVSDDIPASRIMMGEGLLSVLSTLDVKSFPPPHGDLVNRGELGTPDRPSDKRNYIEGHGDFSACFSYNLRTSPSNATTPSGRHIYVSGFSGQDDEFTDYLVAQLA

T7: AgeI S138A (UniProt Q9KHV6 1-278, S138A)
T7 sequence: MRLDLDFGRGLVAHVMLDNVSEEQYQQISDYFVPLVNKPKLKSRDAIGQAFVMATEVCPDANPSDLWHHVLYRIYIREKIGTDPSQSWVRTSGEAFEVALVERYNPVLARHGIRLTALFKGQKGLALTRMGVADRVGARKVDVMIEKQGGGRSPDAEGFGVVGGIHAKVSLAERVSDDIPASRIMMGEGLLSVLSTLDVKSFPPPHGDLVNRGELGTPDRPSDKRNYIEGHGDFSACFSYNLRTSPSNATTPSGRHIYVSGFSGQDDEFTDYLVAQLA


Tests used:
AgeI wt [1] = target: T1, AgeI wt; assay: X-ray crystallography
AgeI D223A = target: T2, AgeI D223A; assay: EMSA
AgeI D178A = target: T3, AgeI D178A; assay: EMSA
AgeI D177A = target: T4, AgeI D177A; assay: EMSA
AgeI wt [2] = target: T1, AgeI wt; assay: X-ray crystallography; remark: listed apart in the source
AgeI D142A = target: T5, AgeI D142A; assay: EMSA
AgeI Q86A = target: T6, AgeI Q86A; assay: EMSA
AgeI S138A = target: T7, AgeI S138A; assay: EMSA
AgeI wt [3] = target: T1, AgeI wt; assay: EMSA

Row | Binder | Kd (AgeI D223A) [nM] | Kd (AgeI D178A) [nM] | Kd (AgeI D177A) [nM] | other results
1 | SP13 (dsDNA) DNA 1: TTCGACCGGTCGA DNA 2: TTCGACCGGTCGA | – | – | – | binding result (AgeI wt [1]): binds
2 | NC (non-canonical) (dsDNA) DNA 1: AGACCCACGCTCACCGGATCCAGATTTATC DNA 2: GATAAATCTGGATCCGGTGAGCGTGGGTCT | ~5 | ~5 | 14.7 ± 3.1 | –
3 | SP11 (dsDNA) DNA 1: TCGACCGGTCG DNA 2: TCGACCGGTCG | – | – | – | binding result (AgeI wt [2]): binds
4 | SP (specific) (dsDNA) DNA 1: AGACCCACGCTCACCGGTTCCAGATTTATC DNA 2: GATAAATCTGGAACCGGTGAGCGTGGGTCT | 1.2 ± 0.4 | 1 ± 0.3 | 19.5 ± 5.6 | Kd (AgeI D142A): 2.4 ± 0.8 nM; Kd (AgeI Q86A): 4.6 ± 1.4 nM; Kd (AgeI S138A): 1.2 ± 0.2 nM; Kd (AgeI wt [3]): 0.9 ± 0.2 nM
